Source: patent US20230122079A1 (published 2023)

Experiments:
CD3 on Jurkat cells [1] = molecular target: CD3 on Jurkat cells (human); assay: cell ELISA; -uPa
CD3 on Jurkat cells [2] = molecular target: CD3 on Jurkat cells (human); assay: cell ELISA
CD3 on Jurkat cells [3] = molecular target: CD3 on Jurkat cells (human); assay: cell ELISA; +uPa

Chain of CD3 on Jurkat cells (human) (chain, as listed by the source, chain 1 of 4): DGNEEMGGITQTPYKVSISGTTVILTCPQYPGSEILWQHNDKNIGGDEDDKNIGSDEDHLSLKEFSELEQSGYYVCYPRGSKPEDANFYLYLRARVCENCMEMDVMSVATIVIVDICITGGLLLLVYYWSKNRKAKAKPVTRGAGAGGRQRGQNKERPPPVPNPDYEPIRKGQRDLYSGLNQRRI
Chain of CD3 on Jurkat cells (human) (chain, as listed by the source, chain 2 of 4): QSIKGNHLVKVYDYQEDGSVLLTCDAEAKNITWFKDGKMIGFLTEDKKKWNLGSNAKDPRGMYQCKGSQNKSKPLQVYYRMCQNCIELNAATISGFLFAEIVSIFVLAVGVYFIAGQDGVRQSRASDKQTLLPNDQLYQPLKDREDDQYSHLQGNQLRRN
Chain of CD3 on Jurkat cells (human) (chain, as listed by the source, chain 3 of 4): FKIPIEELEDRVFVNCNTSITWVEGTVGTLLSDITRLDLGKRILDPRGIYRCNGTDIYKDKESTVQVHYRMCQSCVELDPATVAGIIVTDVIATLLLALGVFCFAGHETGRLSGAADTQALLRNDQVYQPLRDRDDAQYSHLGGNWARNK
Chain of CD3 on Jurkat cells (human) (chain, as listed by the source, chain 4 of 4): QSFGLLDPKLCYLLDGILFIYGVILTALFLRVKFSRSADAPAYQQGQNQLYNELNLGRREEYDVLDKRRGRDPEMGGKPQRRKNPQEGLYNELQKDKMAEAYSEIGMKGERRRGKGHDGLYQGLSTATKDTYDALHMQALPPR

| Binder | EC50 (CD3 on Jurkat cells [2]) [nM] | other results |
| --- | --- | --- |
| 30436 (WT PD-1: HA PD-L1 masked CD3 × Her2 Fab × scFv Fc, PD-1 cleavable), not treated with uPa (bispecific antibody) heavy: not shown light: AFTVTVPKDLYVVEYGSNMTIECKFPVEKQLDLAALQVFWMMEDKNIIQFVHGEEDLKVQHSSYRQRARLLKDQLSLGNAALQITDVKLQDAGVYTCLIAYKGADYKRITVKVNAEAAAKEAAAKDIQMTQSPSSLSASVGDRVTMTCSASSSVSYMNWYQQKPGKAPKRWIYDSSKLASGVPARFSGSGSGTDYTLTISSLQPEDFATYYCQQWSRNPPTFGGGTKLQITRTVAAPSVFIFPPSDEQLKSGTASVVCLLNNFYPREAKVQWKVDNALQSGNSQESVTEQDSKDSTYSLSSTLTLSKADYEKHKVYACEVTHQGLSSPVTKSFNRGEC not shown |  | EC50 (CD3 on Jurkat cells [1]): 178 nM |
| 31931 (Half-masked CD3 × Her2 Fab × scFv Fc, HA PD-L1 attached to LC) (bispecific antibody) heavy: not shown light: AFTVTVPKDLYVVEYGSNMTIECKFPVEKQLDLAALQVFWMMEDKNIIQFVHGEEDLKVQHSSYRQRARLLKDQLSLGNAALQITDVKLQDAGVYTCLIAYKGADYKRITVKVNAEAAAKEAAAKDIQMTQSPSSLSASVGDRVTMTCSASSSVSYMNWYQQKPGKAPKRWIYDSSKLASGVPARFSGSGSGTDYTLTISSLQPEDFATYYCQQWSRNPPTFGGGTKLQITRTVAAPSVFIFPPSDEQLKSGTASVVCLLNNFYPREAKVQWKVDNALQSGNSQESVTEQDSKDSTYSLSSTLTLSKADYEKHKVYACEVTHQGLSSPVTKSFNRGEC not shown | 5.33 |  |
| 30436 treated with uPa (bispecific antibody) heavy: not shown light: AFTVTVPKDLYVVEYGSNMTIECKFPVEKQLDLAALQVFWMMEDKNIIQFVHGEEDLKVQHSSYRQRARLLKDQLSLGNAALQITDVKLQDAGVYTCLIAYKGADYKRITVKVNAEAAAKEAAAKDIQMTQSPSSLSASVGDRVTMTCSASSSVSYMNWYQQKPGKAPKRWIYDSSKLASGVPARFSGSGSGTDYTLTISSLQPEDFATYYCQQWSRNPPTFGGGTKLQITRTVAAPSVFIFPPSDEQLKSGTASVVCLLNNFYPREAKVQWKVDNALQSGNSQESVTEQDSKDSTYSLSSTLTLSKADYEKHKVYACEVTHQGLSSPVTKSFNRGEC not shown |  | EC50 (CD3 on Jurkat cells [3]): 6.22 nM |
| 31929 (Half-masked CD3 × Her2 Fab × scFv Fc, HA PD-1 attached to HC) (bispecific antibody) heavy: not shown light: DIQMTQSPSSLSASVGDRVTMTCSASSSVSYMNWYQQKPGKAPKRWIYDSSKLASGVPARFSGSGSGTDYTLTISSLQPEDFATYYCQQWSRNPPTFGGGTKLQITRTVAAPSVFIFPPSDEQLKSGTASVVCLLNNFYPREAKVQWKVDNALQSGNSQESVTEQDSKDSTYSLSSTLTLSKADYEKHKVYACEVTHQGLSSPVTKSFNRGEC not shown | 4.2 |  |
| 30421 (CD3 × Her2 Fab × scFv Fc without mask) (bispecific antibody) heavy: not shown light: DIQMTQSPSSLSASVGDRVTMTCSASSSVSYMNWYQQKPGKAPKRWIYDSSKLASGVPARFSGSGSGTDYTLTISSLQPEDFATYYCQQWSRNPPTFGGGTKLQITRTVAAPSVFIFPPSDEQLKSGTASVVCLLNNFYPREAKVQWKVDNALQSGNSQESVTEQDSKDSTYSLSSTLTLSKADYEKHKVYACEVTHQGLSSPVTKSFNRGEC not shown | 1.22 |  |
